Source: patent US20180185504A1 (Regeneron, published 2018)

T1: human PRLR on cells (endogenous on T47D, T47D#11, MCF7); introduced in HEK293/hPRLR/STAT5-Luc, 293/hPRLR, … (human, UniProt P16471 25-622)
T1 construct: no tag is stated for these lines; also called prolactin receptor
T1 sequence: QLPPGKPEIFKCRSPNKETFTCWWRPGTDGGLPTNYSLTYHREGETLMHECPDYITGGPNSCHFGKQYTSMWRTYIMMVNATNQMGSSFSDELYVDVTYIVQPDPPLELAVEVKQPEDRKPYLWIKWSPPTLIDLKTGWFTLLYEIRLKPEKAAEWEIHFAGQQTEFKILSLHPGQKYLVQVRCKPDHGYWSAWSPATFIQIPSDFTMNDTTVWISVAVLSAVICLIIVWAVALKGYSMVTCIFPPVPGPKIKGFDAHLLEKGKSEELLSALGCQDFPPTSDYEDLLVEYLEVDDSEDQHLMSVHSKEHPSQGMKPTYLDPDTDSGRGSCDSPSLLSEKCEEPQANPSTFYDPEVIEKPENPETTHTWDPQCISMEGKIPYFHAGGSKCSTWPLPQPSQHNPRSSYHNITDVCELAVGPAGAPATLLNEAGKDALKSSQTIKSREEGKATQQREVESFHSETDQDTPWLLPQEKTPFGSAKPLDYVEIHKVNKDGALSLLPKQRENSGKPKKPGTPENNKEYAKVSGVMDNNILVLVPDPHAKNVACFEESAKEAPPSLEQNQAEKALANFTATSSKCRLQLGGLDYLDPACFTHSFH

T2: mouse PRLR construct with an HA tag on HEK293/mPRLR cells (mouse, UniProt Q08501 20-608)
T2 construct: whole, on cells; stably transfected into HEK293
T2 sequence (looked up): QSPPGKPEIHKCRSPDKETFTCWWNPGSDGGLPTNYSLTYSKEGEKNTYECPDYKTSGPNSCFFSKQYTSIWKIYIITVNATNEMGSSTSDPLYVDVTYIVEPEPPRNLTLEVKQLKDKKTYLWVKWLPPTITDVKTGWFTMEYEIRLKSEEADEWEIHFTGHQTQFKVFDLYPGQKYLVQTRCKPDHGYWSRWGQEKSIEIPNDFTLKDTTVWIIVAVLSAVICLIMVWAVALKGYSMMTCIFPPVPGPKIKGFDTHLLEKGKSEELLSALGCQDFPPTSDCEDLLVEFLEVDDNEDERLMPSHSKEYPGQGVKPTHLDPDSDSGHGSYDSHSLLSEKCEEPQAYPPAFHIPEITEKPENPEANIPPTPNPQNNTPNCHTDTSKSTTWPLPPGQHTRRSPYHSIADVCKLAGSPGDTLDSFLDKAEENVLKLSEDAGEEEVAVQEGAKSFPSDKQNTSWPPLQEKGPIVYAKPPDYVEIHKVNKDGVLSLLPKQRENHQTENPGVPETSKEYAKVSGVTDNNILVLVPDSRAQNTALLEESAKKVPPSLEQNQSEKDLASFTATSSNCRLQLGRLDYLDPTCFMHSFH

T3: human PRLR construct with an HA tag on HEK293/hPRLR cells (human, UniProt P16471 25-622)
T3 sequence: T1 sequence

B1: H1H6959N2 (antibody, human IgG1, V domains shown)
VH: EVQLVESGGGLVQPGRSLRLSCAASGFTFDDYAMHWVRQAPGKGLEWVSGISWHSGIIGYADSVKGRFTISRDNAKNSLYLQMNSLRTEDAALYYCAKIGSYFYFDSWGQGTLVTVSS
VL: EIVLTQSPGTLSLSPGERATLSCRASQSVSSNYLAWYQQKPGQAPRLLIYGASSRATGIPDRFSGSGSGTDFTLTISRLEPEDFAVYYCQQFGSSGYTFGQGTNLEIK
notes: also called H2M6959N2
B2: H1H6960N (antibody, human IgG1, V domains shown)
VH: EVQLVESGGGLVKPGGSLRLSCAASGITFSSYSMNWVRQAPGKGLEWVSSISTRSSLIHYADSVKGRFTISRDNAKNSLYLQMNSLRDEDTAVYYCARWDAAAAFDYWGQGTLVIVSS
VL: DIQLTQSPSFLSASVGDRVTITCWASQGISSYLAWYQQKPGKAPKLLIYVASTLQSGVPSRFSGSGSGTEFTLTISSLQPEDFATYFCQQLNSYPLTFGGGTKVEIK
notes: also called H2M6960N
B3: H1H6966N (antibody, human IgG1, V domains shown)
VH: QVQLVQSGAEVQKPGASVKVSCKVSGYTLTALSIHWVRQAPGKGLEWMGNFDPGDGETIHAQKFQGRVTMTGDTSTDTAYMELSSLRSEDTAVYYCVGVTFDYWGQGTLVTVSS
VL: EIVMTQSPATLSVSPGERATLSCRASQSVASNLAWYQQKPGQAPRLLLYGASTRATGIPARFSGSGSGTEFTLTISSLQSEDFALYYCQHYNNWPLTFGGGTKVEIK
notes: also called H2M6966N
B4: H1H6804P (antibody, human IgG1, V domains shown)
VH: QVTLKESGPVLVKPTQTLSLTCTVSGFSLSDAGMGVSWIRQPPGKALEWLAHIFSNDGKSYSTSLKSRLTISKDTSKRQVVLTMTNMDPVDTATYYCARIRTGTYSLYLDYWGQGTLVTVSS
VL: DIQMTQSPSSLSASVGDRVTITCRASQSINSYLNWYQQKPGKAPKLLLYFASSLQSGVPSRFSGSGSGTDFTLTISSLQPEDFASYYCQESYSTPWTFGQGTKVEIK
notes: human IgG1 Fc (H1H)

biological target: T1, human PRLR on cells (endogenous on …); test: FACS on T47D cells

Row | Binder | FACS Cell Binding (Fold Above Background)
1 | B1 | 9 fold
2 | B2 | 33 fold
3 | B3 | 31 fold
4 | B4 | 34 fold

biological target: T1, human PRLR on cells (endogenous on …); test: imaging of alexa488 intensity on T47D cells
Procedure, shortened: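 T47D cells labelled on ice with alexa488 anti-hFc Fab secondary for 30 min, then held 1 h at 37 °C in PBS+2% FBS or at 4 °C. After fixation and DRAQ5 staining, whole-cell (binding) and intracellular-vesicle (internalization) alexa488 intensities at 37 °C quantified by imaging.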

Row | Binder | % Total Binding relative to Control I
5 | B1 | 2%
6 | B2 | 89.7%
7 | B3 | 111%
8 | B4 | 150%

biological target: T2, mouse PRLR construct with an HA tag on …; test: FACS on HEK293/mPRLR cells

Row | Binder | FACS Cell Binding (Fold Above Background)
9 | B1 | 2 fold
10 | B2 | 1 fold
11 | B3 | 1 fold
12 | B4 | 1 fold

biological target: T3, human PRLR construct with an HA tag on …; test: FACS on HEK293/hPRLR cells

Row | Binder | FACS Cell Binding (Fold Above Background)
13 | B1 | 6 fold
14 | B2 | 29 fold
15 | B3 | 29 fold
16 | B4 | 1 fold

biological target: T1, human PRLR on cells (endogenous on …); test: cell-based or functional assay

Row | Binder | % Internalization relative to Control I (T47D cells, imaging)
17 | B1 | 15.3%
18 | B2 | 120%
19 | B3 | 137%
20 | B4 | 139%
